For experiment [1], the target named is T1, recombinant human RAGE (plate coat of the competition ELISA of Example 1.4).
T1 construct: not shown: The carrier of the coated preparation, if it had one
Nature of the experiment: competition ELISA on plates coated with recombinant human RAGE (2 µg/mL); competitor: biotinylated hybridoma-derived 4E5 (4E5-biotin), streptavidin-HRP, OD 450 nm; the unit comes from the axis 'Log MAbs (M)'. As for the experimental part:
(§1) The purified chimeric anti-human RAGE monoclonal antibodies were tested for their ability to bind human RAGE in a competition ELISA. […] Equal volumes (50 μL) of each recombinant chimeric anti-human RAGE monoclonal antibodies or hybridoma-derived anti-human RAGE monoclonal antibodies and each corresponding biotinylated hybridoma-derived anti-RAGE mAbs were mixed. 50 μL of this mixture was then added to ELISA plates pre-coated with recombinant human RAGE at 2 μg/mL and incubated for 1.5 hours at room temperature. Wells were washed three times with PBS+0.05% Tween-20. Streptavidin HRP (1 mg/mL) was diluted 1:16000 in PBST+10% Superblock; 50 µL/well was added and the plates incubated for 1 hour at room temperature. Plates were washed 3 times with PBS+0.05% Tween-20. 50 µL of TMB solution (Sigma, St Louis, Mo.) was added to each well and incubated for 10 minutes at room temperature. The reaction was stopped by addition of IN sulphuric acid. Plates were read spectrophotometrically at a wavelength of 450 nm.
In general terms: An ELISA detects its analyte on a solid surface through an enzyme-linked reagent.

The target of experiment [2] is T2, biotinylated Aβ1-42 globulomer (UniProt P05067 672-713, 1/5 of the Aβ1-42 peptide used was Biotinyl-Amyloid β-Protein (1-42)).
T2 construct: domain: Amyloid β-Protein (1-42); Oligomer of Aβ1-42; Concentrations are calculated as Aβ1-42 monomer; also called Aβ-globulomer; amyloid Aβ-globulomers
Briefly: ALPHA screen: RAGE-Fc titrated on protein A acceptor beads, biotinylated Aβ globulomer on streptavidin donor beads.

The target of experiment [3] is T1, recombinant human RAGE (plate coat of …). Nature of the experiment: competition ELISA on plates coated with recombinant human RAGE (2 µg/mL); competitor: biotinylated hybridoma-derived 11E6 (11E6-biotin), streptavidin-HRP, OD 450 nm; the unit comes from the axis 'Log MAbs (M)'. As for the experimental part:
as §1

For orientation: EC50 means the concentration that produces a half-maximal response.

B1: 4E5-recombinant (antibody, V domains shown)
VH: QVQLQQSGAELVRPGTSVKVSCKASGYAFNNYLIEWIKQRPGQGLEWIGVINPGSGGTNHNEKFKVKATLTADKSSSTAYIQLSSLTSDDSAVYFCARSAGTARARFAYWGQGTLVTVSA
VL: DIQMTQSPSSLSASLGERVSLTCRASQDIGSSLNWLQQEPDGTIKRLIYATSSLDSGVPKRFSGSRSGSDYSLTISSLESEDFVDYYCLQYASFPFTFGSGTKLEIKR
notes: also called recombinant chimeric anti-human RAGE monoclonal antibody 4E5 (human IgG1/kappa)
B1: the EC50 in experiment [1] came to 66.2 nM.

B2: C-terminal shortened husRAGE fusion protein (1-130-sRAGE-Fc) (Fc fusion)
chain: AQNITARIGEPLVLKCKGAPKKPPQRLEWKLNTGRTEAWKVLSPQGGGPWDSVARVLPNGSLFLPAVGIQDEGIFRCQAMNRNGKETKSNYRVRVYQIPGKPEIVDSA
notes: also called husRAGE-1-130-Fc; RAGE-Fc mutant protein consisting of the v-domain only; not shown: C-terminal part of a human IgG heavy chain ('hIgG lambda hc 257-Stop')
For B2, the binding result in experiment [2] is given as “no binding (tested: about 30 ng/µl)”.

B3: 11E6-recombinant (antibody, V domains shown)
VH: QIQLVQSGPELKKPGETVKISCKASGYTFTNFGMNWVKQAPGKGLKWMGYINTNTGESIYSEEFKGRFAFSLETSASTAYLQINNLKNEDTATYFCARSRMVTAYGMDYWGQGTSVTVSS
VL: DIVMTQSQKFMSTSVGDRVSITCKASQNVGTAVAWYQQRPGQSPKLLIFSASNRYTGVPDRFTGSGSGTDFTLTLSNMQPEDLADYFCQQYSSYPLTFGVGTKLELKR
notes: also called recombinant chimeric anti-human RAGE monoclonal antibody 11E6 (human IgG1/kappa)
Turning to B3, the EC50 in experiment [3] is 64.7 nM.

(Values after patent US20170002075A1 (AbbVie / Abbott, published 2017).)
